Source: publication PMC8809985, “Preparation and characterization of a fully human monoclonal antibody specific for human tumor necrosis factor alpha” (Bioengineered, 2021)
“And” between values parts separate entries of the source, which are not always exact repeats. Equal entries are not always repeated.

Molecular target: recombinant human tumor necrosis factor alpha (Homo sapiens, UniProt P01375)
Test: cell-based or functional assay

Sequence of recombinant human tumor necrosis factor alpha (P01375 77-233): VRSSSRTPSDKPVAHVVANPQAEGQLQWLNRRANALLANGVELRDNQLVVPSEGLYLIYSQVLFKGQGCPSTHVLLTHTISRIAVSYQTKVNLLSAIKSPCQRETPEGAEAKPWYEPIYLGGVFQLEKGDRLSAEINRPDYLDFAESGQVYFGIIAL

B1: Haidalimumab (antibody, V domains shown)
VH: EVQLVESGGGLVQPGGSLRLSCAASGFPFSNHWMNWVRQAPGKGLEWVGEIRSKSMNSATHYAESVKGRFTISRDDSKNSLYLQMNSLKTEDTAVYYCARNYYGSTYDHWGQGTLVTVSS
VL: EIVLTQSPDFQSVTPKEKVTITCRASQFVGYSIHWYQQKPDQSPKLLIKYASESRSGVPSRFSGSGSGTDFTLTINSLEAEDAATYYCQQSHSWHFTFGQGTKLEIK
- EC50 of neutralisation of the cytotoxicity of rhTNFα (1 ng/mL, with actinomycin D 2.5 μg/mL) on L929 cells, MTT; one of three antibody batches: 0.0195 µg/mL and 0.018 µg/mL and 0.0158 µg/mL
